In patent US20190270826A1 (Janssen / Centocor, published 2019):
Numbering of substitutions follows the chain as printed. Names may count otherwise. Each block holds one binder with its values, some of them ahead of it.

Experiments:
[1] = target: T1, human IL1RAP on cells (endogenous) (human, UniProt Q9NPH3 21-570); experiment: cell-based or functional assay
T1 sequence (looked up): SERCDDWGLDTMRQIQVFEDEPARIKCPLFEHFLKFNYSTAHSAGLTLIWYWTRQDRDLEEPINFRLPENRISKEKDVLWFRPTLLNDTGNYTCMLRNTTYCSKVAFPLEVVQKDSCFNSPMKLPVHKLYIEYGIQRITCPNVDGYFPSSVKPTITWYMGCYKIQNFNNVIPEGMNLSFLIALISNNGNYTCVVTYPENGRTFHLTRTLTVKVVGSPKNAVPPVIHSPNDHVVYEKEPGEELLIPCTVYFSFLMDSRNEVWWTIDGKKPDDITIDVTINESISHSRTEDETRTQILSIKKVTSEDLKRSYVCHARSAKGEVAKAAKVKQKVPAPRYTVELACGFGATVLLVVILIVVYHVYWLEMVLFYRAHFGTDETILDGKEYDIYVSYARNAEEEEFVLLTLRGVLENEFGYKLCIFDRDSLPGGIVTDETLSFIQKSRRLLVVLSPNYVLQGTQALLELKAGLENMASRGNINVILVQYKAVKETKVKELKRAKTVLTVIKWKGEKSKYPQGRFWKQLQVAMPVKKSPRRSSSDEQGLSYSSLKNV

human FcRn = target: T2, human FcRn (human, UniProt P55899 24-297; P61769 21-119, limits assumed); experiment: AlphaScreen competition, human FcRn (n=1); displaced: biotinylated control mAb B21M WT IgG1 (m27); pH 6.0
T2 construct: GST-tagged
Text: (§1) Measurements were made using an AlphaScreen™ assay (Amplified Luminescent Proximity Homogeneous Assay (ALPHA), PerkinElmer, Wellesley, Mass.), a bead-based luminescent proximity assay. Laser excitation of a donor bead excites oxygen, which if sufficiently close to the acceptor bead generates a cascade of chemiluminescent events, ultimately leading to fluorescence emission at 520-620 nm.

human FcγRI = target: T3, human FcγRI (human, UniProt P12314 16-292, limits assumed); experiment: AlphaScreen competition, human FcγRI (n=1); displaced: biotinylated control mAb B21M hIgG1 AlaAla; pH 7.2
T3 construct: GST-tagged, on glutathione acceptor beads; also called FcγRT [sic]
Text: as §1

[2] = target: T4, human IL1RAP ECD displayed on HEK-293F cells (pDisplay) (human, UniProt Q9NPH3 21-367); experiment: MSD cell binding, HEK-293F Human (clone HE2) cells displaying human IL1RAP ECD
T4 construct: also called Human clone HE2 IL1RAP FL-ECD cell line
T4 sequence: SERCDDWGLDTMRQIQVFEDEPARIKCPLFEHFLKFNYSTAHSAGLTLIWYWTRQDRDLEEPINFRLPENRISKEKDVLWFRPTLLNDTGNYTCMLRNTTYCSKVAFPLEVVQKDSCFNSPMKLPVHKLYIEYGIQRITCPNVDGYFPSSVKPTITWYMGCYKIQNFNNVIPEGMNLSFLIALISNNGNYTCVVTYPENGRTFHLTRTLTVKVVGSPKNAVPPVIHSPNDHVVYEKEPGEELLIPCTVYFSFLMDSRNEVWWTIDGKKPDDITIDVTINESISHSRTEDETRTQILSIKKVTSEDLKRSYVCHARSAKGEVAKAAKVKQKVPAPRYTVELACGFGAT
Procedure: (§2) Cells were immobilized and IL1RAP antibody samples were assayed in triplicate. Briefly, expression supernatants of purified IL1RAP antibodies were normalized to 10 μg/mL. 5000 cells per well were plated into a 384 well plate (MA6000, cat. L21XB, MSD) and allowed to adhere for 2 hr. Cells were then blocked with 20% FBS in PBS (Gibco) for 15 mins. Antibody supernatants were then added and left at RT for 1 hr. Cells were washed 3 times with PBS and a ruthenium labeled secondary antibody (Mesoscale Discovery) was then added at 2 μg/mL and incubated for 1 hour at room temperature. A further washing step was then applied and 35 μL per well of 2×MSD Read buffer T (surfactant free) was then added and incubated for 5-30 minutes for detection. Plates were then read using Sector Imager 2400 (MSD). Data was normalized to controls and graphed using GraphPad Prism Version 5. A positive binder was determined to be a hit with a signal 3× greater than parental cell line background.
(§3) The MSD cell binding assay described in Example 4 was used to assess IL1RAP binding.

[3] = target: T5, rat IL1RAP ECD displayed on HEK-293F cells (pDisplay) (rat, UniProt Q63621 21-367); experiment: MSD cell binding, HEK-293F Rat clone 1 cells displaying rat IL1RAP ECD
T5 sequence: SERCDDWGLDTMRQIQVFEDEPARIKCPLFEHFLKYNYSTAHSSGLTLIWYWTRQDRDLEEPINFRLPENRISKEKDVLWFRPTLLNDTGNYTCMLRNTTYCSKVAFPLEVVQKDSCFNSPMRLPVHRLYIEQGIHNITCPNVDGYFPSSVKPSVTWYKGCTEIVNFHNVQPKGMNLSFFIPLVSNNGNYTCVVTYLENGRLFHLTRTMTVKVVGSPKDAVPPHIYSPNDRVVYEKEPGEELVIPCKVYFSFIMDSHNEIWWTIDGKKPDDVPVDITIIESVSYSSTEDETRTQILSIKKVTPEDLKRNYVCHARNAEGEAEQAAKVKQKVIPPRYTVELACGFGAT
Procedure: as §2, §3

[4] = target: T6, mouse IL1RAP ECD displayed on HEK-293F cells (pDisplay) (mouse, UniProt Q61730 21-367); experiment: MSD cell binding, HEK-293F Mouse clone 5 cells displaying mouse IL1RAP ECD
T6 sequence: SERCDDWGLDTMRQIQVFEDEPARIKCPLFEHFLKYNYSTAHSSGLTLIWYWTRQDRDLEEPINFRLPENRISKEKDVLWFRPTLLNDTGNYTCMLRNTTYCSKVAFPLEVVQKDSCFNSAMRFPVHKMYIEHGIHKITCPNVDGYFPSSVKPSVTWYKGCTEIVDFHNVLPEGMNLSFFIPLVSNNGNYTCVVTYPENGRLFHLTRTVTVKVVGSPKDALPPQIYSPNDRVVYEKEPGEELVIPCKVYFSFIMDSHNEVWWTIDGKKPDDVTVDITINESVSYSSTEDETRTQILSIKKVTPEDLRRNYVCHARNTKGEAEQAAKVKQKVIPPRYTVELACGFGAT
Procedure: as §2, §3

[5] = target: T7, cyno IL1RAP ECD displayed on HEK-293F cells (pDisplay) (cynomolgus monkey, UniProt P59822 21-367 (rhesus entry)); experiment: MSD cell binding, HEK-293F Cyno (clone CB8) cells displaying cyno IL1RAP ECD
T7 sequence: T4 sequence with L183F, T273P, K326T
Procedure: as §2, §3

[6] = target: T8, recombinant human IL1RAP ECD (human, UniProt Q9NPH3 21-367); experiment: SPR; KD against parent IAPB4
T8 construct: His-tagged; also called hIL1RAP-ECD; rhuIL1RAP
T8 sequence: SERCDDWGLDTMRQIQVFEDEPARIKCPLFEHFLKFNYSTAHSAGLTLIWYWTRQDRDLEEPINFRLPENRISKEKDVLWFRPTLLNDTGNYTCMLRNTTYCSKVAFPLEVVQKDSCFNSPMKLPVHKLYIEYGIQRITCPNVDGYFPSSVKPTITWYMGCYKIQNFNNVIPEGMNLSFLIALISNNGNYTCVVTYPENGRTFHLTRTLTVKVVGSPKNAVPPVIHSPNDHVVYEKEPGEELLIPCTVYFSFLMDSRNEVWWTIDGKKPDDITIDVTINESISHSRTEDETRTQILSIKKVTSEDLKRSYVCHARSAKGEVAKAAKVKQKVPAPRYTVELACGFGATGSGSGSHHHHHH

[7] = target: T8, recombinant human IL1RAP ECD; experiment: SPR, summary
[8] = target: T8, recombinant human IL1RAP ECD; experiment: SPR (ProteOn)

IC50 (read off the curve) (human FcRn): ~200 nM
IC50 (read off the curve) (human FcγRI): ~90 nM
EC50 (read off the curve) [2]: ~1 µg/mL
binding result [3]: no binding (tested: 100 µg/mL)
binding result [4]: no binding (tested: 100 µg/mL)
EC50 (read off the curve) [5]: ~1 µg/mL
B1: IC3B18 (bispecific antibody, human IgG4 S228P, lambda, F234A L235A)
heavy 1: EVQLVESGGGLVQPGGSLRLSCAASGFTFNTYAMNWVRQAPGKGLEWVARIRSKYNNYATYYAASVKGRFTISRDDSKNSLYLQMNSLKTEDTAVYYCARHGNFGNSYVSWFAYWGQGTLVTVSSASTKGPSVFPLAPCSRSTSESTAALGCLVKDYFPEPVTVSWNSGALTSGVHTFPAVLQSSGLYSLSSVVTVPSSSLGTKTYTCNVDHKPSNTKVDKRVESKYGPPCPPCPAPEAAGGPSVFLFPPKPKDTLMISRTPEVTCVVVDVSQEDPEVQFNWYVDGVEVHNAKTKPREEQFNSTYRVVSVLTVLHQDWLNGKEYKCKVSNKGLPSSIEKTISKAKGQPREPQVYTLPPSQEEMTKNQVSLTCLVKGFYPSDIAVEWESNGQPENNYKTTPPVLDSDGSFLLYSKLTVDKSRWQEGNVFSCSVMHEALHNHYTQKSLSLSLGK
light 1: QTVVTQEPSLTVSPGGTVTLTCRSSTGAVTTSNYANWVQQKPGQAPRGLIGGTNKRAPGTPARFSGSLLGGKAALTLSGVQPEDEAEYYCALWYSNLWVFGGGTKLTVLGQPKAAPSVTLFPPSSEELQANKATLVCLISDFYPGAVTVAWKADSSPVKAGVETTTPSKQSNNKYAASSYLSLTPEQWKSHRSYSCQVTHEGSTVEKTVAPTECS
heavy 2: not shown
light 2: QSALTQPRSVSGSPGHSVTISCTGTSSDVGDYNYVSWYQQRPGKVPKLLIYDVSKRPSGVPDRFSGSKSGNTASLTISGLQAEDEAIYFCASYAGNYNVVFGGGTKLTVLGQPKAAPSVTLFPPSSEELQANKATLVCLISDFYPGAVTVAWKADSSPVKAGVETTTPSKQSNNKYAASSYLSLTPEQWKSHRSYSCQVTHEGSTVEKTVAPTECS
notes: IgG4-PAA, Fab arm exchange; also called IAPB63 x CD3B219; IL1RAP x CD3
Average EC50, SKNO-1 cytotoxicity in whole blood, 24 hour [1]: 2.92 nM
Average EC50, SKNO-1 cytotoxicity in whole blood, 48 hour [1]: 0.804 nM
EC50, SKNO-1 cytotoxicity in whole blood, donor 00201, 24 hour [1]: 8.62 nM
EC50, SKNO-1 cytotoxicity in whole blood, donor 00201, 48 hour [1]: 0.704 nM
EC50, SKNO-1 cytotoxicity in whole blood, donor 00263, 24 hour [1]: 0.4 nM
EC50, SKNO-1 cytotoxicity in whole blood, donor 00263, 48 hour [1]: 0.58 nM
EC50, SKNO-1 cytotoxicity in whole blood, donor 27050, 48 hour [1]: 2.04 nM
EC50, SKNO-1 cytotoxicity in whole blood, donor 27060, 24 hour [1]: 2.5 nM
EC50, SKNO-1 cytotoxicity in whole blood, donor 27060, 48 hour [1]: 0.516 nM
EC50, SKNO-1 cytotoxicity in whole blood, donor 27067, 24 hour [1]: 1.11 nM
EC50, SKNO-1 cytotoxicity in whole blood, donor 27067, 48 hour [1]: 0.337 nM
EC50, SKNO-1 cytotoxicity in whole blood, donor 32771, 24 hour [1]: 1.94 nM
EC50, SKNO-1 cytotoxicity in whole blood, donor 32782, 48 hour [1]: 0.65 nM

Fold Different from parent [6]: 2.2 fold
Kd [7]: 10.4 nM
Kd [8]: 10.4 nM
koff [8]: 0.00341 s⁻¹
kon [8]: 329000 M⁻¹ s⁻¹
B2: IAPB65 (antibody, human IgG4 S228P, kappa, F234A L235A, V domains shown)
VH: QVQLVQSGAEVKKPGSSVKVSCKASGGTFSSYAISWVRQAPGQGLEWMGGISAIFGTANYAQKFQGRVTITADESTSTAYMELSSLRSEDTAVYYCARHLHNAIHLDYWGQGTLVTVSS
VL: EIVLTQSPATLSLSPGERATLSCRASQSVSNFLAWYQQKPGQAPRLLIYGASNRATGIPARFSGSGSGTDFTLTISSLEPEDFAVYYCQQGKHWPWTFGQGTKVEIKR
notes: IgG4-PAA; whole chains; also called IAPB4-HC-G103A; IgG4-PAA, B4 mutant
